In PMC6101577 one finds stoichiometry N data, which are given here for one molecule.

This test addresses T1, recombinant human SFPQ/PSF (human), P23246.
T1 chain: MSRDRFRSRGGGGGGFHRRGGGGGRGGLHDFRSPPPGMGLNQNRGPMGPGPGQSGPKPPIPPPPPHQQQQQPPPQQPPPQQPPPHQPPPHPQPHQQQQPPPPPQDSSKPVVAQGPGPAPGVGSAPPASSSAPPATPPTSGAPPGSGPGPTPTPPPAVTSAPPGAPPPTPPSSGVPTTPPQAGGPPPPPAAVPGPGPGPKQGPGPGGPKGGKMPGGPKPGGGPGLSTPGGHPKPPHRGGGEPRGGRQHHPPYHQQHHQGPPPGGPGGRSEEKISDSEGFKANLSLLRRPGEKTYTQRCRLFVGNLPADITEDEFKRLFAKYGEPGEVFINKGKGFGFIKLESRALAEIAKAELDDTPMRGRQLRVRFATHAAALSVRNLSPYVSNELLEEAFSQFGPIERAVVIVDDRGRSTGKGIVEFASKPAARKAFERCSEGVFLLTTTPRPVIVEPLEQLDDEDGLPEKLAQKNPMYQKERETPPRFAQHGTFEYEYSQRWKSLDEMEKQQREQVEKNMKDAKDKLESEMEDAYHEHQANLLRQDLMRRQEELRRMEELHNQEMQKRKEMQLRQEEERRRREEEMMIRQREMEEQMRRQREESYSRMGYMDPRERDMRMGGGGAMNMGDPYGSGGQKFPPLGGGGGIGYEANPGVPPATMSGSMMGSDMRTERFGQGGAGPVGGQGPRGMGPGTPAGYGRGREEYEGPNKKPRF
In words: SEC. The settings on record: remark: other sources report otherwise.

B1: recombinant human SFPQ/PSF, P23246 1-707 (natural protein)
chain: MSRDRFRSRGGGGGGFHRRGGGGGRGGLHDFRSPPPGMGLNQNRGPMGPGPGQSGPKPPIPPPPPHQQQQQPPPQQPPPQQPPPHQPPPHPQPHQQQQPPPPPQDSSKPVVAQGPGPAPGVGSAPPASSSAPPATPPTSGAPPGSGPGPTPTPPPAVTSAPPGAPPPTPPSSGVPTTPPQAGGPPPPPAAVPGPGPGPKQGPGPGGPKGGKMPGGPKPGGGPGLSTPGGHPKPPHRGGGEPRGGRQHHPPYHQQHHQGPPPGGPGGRSEEKISDSEGFKANLSLLRRPGEKTYTQRCRLFVGNLPADITEDEFKRLFAKYGEPGEVFINKGKGFGFIKLESRALAEIAKAELDDTPMRGRQLRVRFATHAAALSVRNLSPYVSNELLEEAFSQFGPIERAVVIVDDRGRSTGKGIVEFASKPAARKAFERCSEGVFLLTTTPRPVIVEPLEQLDDEDGLPEKLAQKNPMYQKERETPPRFAQHGTFEYEYSQRWKSLDEMEKQQREQVEKNMKDAKDKLESEMEDAYHEHQANLLRQDLMRRQEELRRMEELHNQEMQKRKEMQLRQEEERRRREEEMMIRQREMEEQMRRQREESYSRMGYMDPRERDMRMGGGGAMNMGDPYGSGGQKFPPLGGGGGIGYEANPGVPPATMSGSMMGSDMRTERFGQGGAGPVGGQGPRGMGPGTPAGYGRGREEYEGPNKKPRF
As usually defined, the stoichiometry N is the number of molecules, sites or subunits per partner or assembly. Regarding B1, the stoichiometry N is 2.
